Experimental data: publication PMC4586593
Like-named read-outs stand apart in the source and are kept apart here.

Legend:
[1] = target: unphosphorylated smooth muscle myosin (SMM) filaments stabilized against ATP-induced disassembly (UniProt P10587)
[2] = target: unphosphorylated smooth muscle myosin (SMM) filaments stabilized against ATP-induced disassembly (UniProt P10587); remark: listed apart in the source

Question: How did the Kd [1] turn out when “smooth muscle MLCK, short isoform, from chicken gizzard, unlabeled (enzyme)” was run?
Answer: 1500 nM

Question: What about the Kd [2] of the same substance?
Answer: 1300 nM
